# Source: US10227388B2, “Peptides and combination of peptides for use in immunotherapy against non-small cell lung cancer and other cancers” (immatics biotechnologies GmbH, priority 2015, dated 2019)
# Target: HLA-A*02:01 (Homo sapiens, UniProt P04439, D140Y/D185E/D98H/E176V/E277Q/G131W/G231S/I119V/I121R/I166T/I218V/L300P/L318F/N151K/N90K/P208A/P217A/Q86G/Q94H/R138H/R169H/T345S)
# Test: MHC binding assay (UV-ligand exchange, ELISA, peptide exchange yield)
# Details: binding of HLA-class I restricted peptides to HLA-A*02:01
# In short: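 Exchange yield was quantified as stabilized β2m-containing complex: monomers diluted 100-fold bound to streptavidin-coated wells, probed with HRP-conjugated anti-β2m, read at 450 nm after TMB. Complexes had been generated by UV cleavage of a photolabile ligand and replacement with the candidate peptide.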
row,"Peptide exchange (MHC class I binding score, peptide exchange yield)",Substance
1,″+++″ (≥50% = +++),254 (TLLAFIMEL; listed as Homo sapiens) [compound 254]
2,″++″ (≥20% = ++),440 (ALADGVTMQV; listed as Homo sapiens) [compound 440]
3,″++++″ (≥75% = ++++),337 (HLLSELEAAPYL; listed as Homo sapiens) [compound 337]
4,″++″ (≥20% = ++),231 (FLSPQQPPLLL; listed as Homo sapiens) [compound 231]
5,″+++″ (≥50% = +++),1 (SLMEPPAVLLL; listed as Homo sapiens) [compound 1]
6,″++″ (≥20% = ++),234 (ALMEDTGRQML; listed as Homo sapiens) [compound 234]
7,″+++″ (≥50% = +++),336 (ILLTAIVQV; listed as Homo sapiens) [compound 336]
8,″++++″ (≥75% = ++++),61 (FLQGYQLHL; listed as Homo sapiens) [compound 61]
9,″+++″ (≥50% = +++),5 (HLTEVYPEL; listed as Homo sapiens) [compound 5]
10,″+++″ (≥50% = +++),195 (GLFADLLPRL; listed as Homo sapiens) [compound 195]
11,″+++″ (≥50% = +++),297 (VLADIELAQA; listed as Homo sapiens) [compound 297]
12,″++″ (≥20% = ++),176 (YLMEGSYNKVFL; listed as Homo sapiens) [compound 176]
13,″++++″ (≥75% = ++++),340 (ALLSMTFPL; listed as Homo sapiens) [compound 340]
14,″+++″ (≥50% = +++),525 (VLLEAGEGLVTI; listed as Homo sapiens) [compound 525]
15,″+++″ (≥50% = +++),560 (ALWDIETGQQTTT; listed as Homo sapiens) [compound 560]
16,″++″ (≥20% = ++),374 (FLLQQHLISA; listed as Homo sapiens) [compound 374]
17,″+++″ (≥50% = +++),236 (GLLEAKVSL; listed as Homo sapiens) [compound 236]
18,″+++″ (≥50% = +++),545 (LLADLLHNV; listed as Homo sapiens) [compound 545]
19,″+++″ (≥50% = +++),612 (YLYNEGLSV; listed as Homo sapiens) [compound 612]
20,″+++″ (≥50% = +++),238 (YLISFQTHI; listed as Homo sapiens) [compound 238]
21,″++++″ (≥75% = ++++),177 (YLLPEEYTSTL; listed as Homo sapiens) [compound 177]
22,″++″ (≥20% = ++),389 (LLADVTHLL; listed as Homo sapiens) [compound 389]
23,″+++″ (≥50% = +++),449 (KLAEGLDIQL; listed as Homo sapiens) [compound 449]
24,″+++″ (≥50% = +++),166 (YLNHLEPPV; listed as Homo sapiens) [compound 166]
25,″++++″ (≥75% = ++++),339 (GLWEIENNPTVKA; listed as Homo sapiens) [compound 339]

row,"Peptide exchange (MHC class I binding score, peptide exchange yield)",Substance
1,″+++″ (≥50% = +++),608 (SLLSVSHAL; listed as Homo sapiens) [compound 608]
2,″+++″ (≥50% = +++),142 (FLFATPVFI; listed as Homo sapiens) [compound 142]
3,″++″ (≥20% = ++),9 (GAAKDLPGV; listed as Homo sapiens) [compound 9]
4,″+++″ (≥50% = +++),139 (SVMEVNSGIYRV; listed as Homo sapiens) [compound 139]
5,″++++″ (≥75% = ++++),585 (ALWDLAADKQTL; listed as Homo sapiens) [compound 585]
6,″+++″ (≥50% = +++),442 (GLLGGGGVLGV; listed as Homo sapiens) [compound 442]
7,″+++″ (≥50% = +++),284 (ILLSQTTGV; listed as Homo sapiens) [compound 284]
8,″+++″ (≥50% = +++),490 (FLLQHVQEL; listed as Homo sapiens) [compound 490]
9,″++″ (≥20% = ++),154 (ALDDGTPAL; listed as Homo sapiens) [compound 154]
10,″+++″ (≥50% = +++),49 (YLPAVFEEV; listed as Homo sapiens) [compound 49]
11,″+++″ (≥50% = +++),370 (SLLQDLVSV; listed as Homo sapiens) [compound 370]
12,″+++″ (≥50% = +++),378 (ALGYFVPYV; listed as Homo sapiens) [compound 378]
13,″+++″ (≥50% = +++),359 (YLLPESVDL; listed as Homo sapiens) [compound 359]
14,″++″ (≥20% = ++),273 (NLFQSVREV; listed as Homo sapiens) [compound 273]
15,″+++″ (≥50% = +++),255 (VLASYNLTV; listed as Homo sapiens) [compound 255]
16,″++″ (≥20% = ++),491 (GLNDRSDAV; listed as Homo sapiens) [compound 491]
17,″+++″ (≥50% = +++),383 (ALLELENSVTL; listed as Homo sapiens) [compound 383]
18,″+++″ (≥50% = +++),184 (YLMDINGKMWL; listed as Homo sapiens) [compound 184]
19,″+++″ (≥50% = +++),76 (ILIDSIYKV; listed as Homo sapiens) [compound 76]
20,″+++″ (≥50% = +++),309 (GLFDGVPTTA; listed as Homo sapiens) [compound 309]
21,″+++″ (≥50% = +++),198 (KTINKVPTV; listed as Homo sapiens) [compound 198]
22,″+++″ (≥50% = +++),501 (LLDPNVKSIFV; listed as Homo sapiens) [compound 501]
23,″+++″ (≥50% = +++),151 (KILQQLVTL; listed as Homo sapiens) [compound 151]
24,″+++″ (≥50% = +++),257 (SIFSAFLSV; listed as Homo sapiens) [compound 257]
25,″+++″ (≥50% = +++),147 (SLLEAVSFL; listed as Homo sapiens) [compound 147]
